Laboratory results reported in patent US20100056439A1 (DOMANTIS, published 2010).
Changes are numbered by the printed parent chain.

B1: DOM16-39 (other)
VL: DIQMTQSPSSLSASVGDRVTITCRASQWIGILLDWYQQKPGEAPKLLIYYASFLQSGVPSRFSGSGSGTDFTLTISSLQPEDFATYYCQQANPAPLTFGQGTKVEIKR
B2: IgG-like format No. 28 (heavy chain V region DOM15-26-501 VH; light chain V region DOM16-39-500 VK) (bispecific antibody, V domains shown)
VH: EVQLLESGGGLVQPGGSLRLSCAASGFTFKAYPIMWVRQAPGKGLEWVSEISPSGSYTYYADSVKGRFTISRDNSKNTLYLQMNSLRAEDTAVYYCAKDPRKFDYWGQGTLVTVSS
VL: B1 VL with L33V, E42K, S67F, Q79H
notes: IgG-like format; also called IgG 28; not shown: human IgG1 heavy chain constant region; human kappa light chain constant region (CK)
B3: DOM16-39-87 (other)
VL: B1 VL with L33V, T97R
B4: IgG-like format No. 30 (heavy chain V region DOM15-26-501 VH; light chain V region DOM16-39-502 VK) (bispecific antibody, V domains shown)
VH: B2 VH
VL: B1 VL with S9T, I31N, E42K, S65G, S67F
notes: IgG-like format; also called IgG 30; not shown: human IgG1 heavy chain constant region; human kappa light chain constant region (CK)
B5: DOM16-39-109 (other)
VL: B1 VL with S9T, I31N, S65G, S67F
B6: DOM16-39-115 (other)
VL: B1 VL with S67Y
B7: DOM16-39-107 (other)
VL: B1 VL with L33V
B8: DOM16-39-100 (other)
VL: B1 VL with L33V, S67F, Q79H

Legend:
[1] = target: T1, EGFR expressed on A431 cells (human, UniProt P00533 25-1210); test: cell-based or functional assay
[2] = target: T1, EGFR expressed on A431 cells; test: EGFR cell receptor binding assay: inhibition of biotinylated EGF binding to A431 cells; IgG-like format
VEGF-165 = target: T2, VEGF-165 (human, UniProt P15692-4 27-191); test: VEGF receptor binding assay (RBA), IgG-like format; receptor (VEGFR1 or VEGFR2) not given
T2 construct: The assay text gives no species; also called vascular endothelial growth factor
T2 sequence (P15692 other isoform, or with tags, fused parts or gaps limits assumed): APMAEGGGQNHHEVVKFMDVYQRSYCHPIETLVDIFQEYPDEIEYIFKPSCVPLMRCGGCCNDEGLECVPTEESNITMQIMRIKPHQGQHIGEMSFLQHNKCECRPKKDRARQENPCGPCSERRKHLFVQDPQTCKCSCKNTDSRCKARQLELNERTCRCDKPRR

[3] = target: T1, EGFR expressed on A431 cells; test: EGFR binding assay: inhibition of biotinylated EGF binding to A431 cells; lowest value obtained
Protocol: All reagents were prepared in PBS/1% BSA. The plate was incubated for 30 minutes at room temperature.

| Binder | Kinase Assay IC50 (nM), average [1] [nM] | EC50 [2] [nM] | IC50 (VEGF-165) [nM] | IC50 [3] [nM] | Kinase Assay IC50 (nM), highest value [1] [nM] | Kinase Assay IC50 (nM), lowest value [1] [nM] |
| --- | --- | --- | --- | --- | --- | --- |
| B1 | 56.1 | – | – | – | – | – |
| B2 | – | 43 | 0.8 | – | – | – |
| B3 | 54.9 | – | – | 4.47 to 10.4 | – | – |
| B4 | – | 17 | 0.2 | – | – | – |
| B5 | 8.69 | – | – | 0.746 to 1.47 | – | – |
| B6 | 42.4 | – | – | 1.08 to 6.89 | – | – |
| B7 | 20.5 | – | – | 1.47 to 4.21 | – | – |
| B8 | 12.7 | – | – | 1.01 to 2.76 | 17.6 | 9.14 |
